PMC12002230, “The cryo-EM structure and physical basis for anesthetic inhibition of the THIK1 K2P channel” (Proceedings of the National Academy of Sciences of the …, 2025)

Molecular target: the molecule itself
Experiment: cryo-EM structure; purified THIK1EM at 2.4 mg/mL in 150 mM KCl, 20 mM Tris pH 8, 0.01% GDN; 300 kV Titan Krios, RELION; 3.2 Å

B1: C-terminally truncated human THIK1 (KCNK13), residues 1 to 309 (domain or fragment, UniProt Q9HB14 1-309, looked up)
chain: MAGRGFSWGPGHLNEDNARFLLLAALIVLYLLGGAAVFSALELAHERQAKQRWEERLANFSRGHNLSRDELRGFLRHYEEATRAGIRVDNVRPRWDFTGAFYFVGTVVSTIGFGMTTPATVGGKIFLIFYGLVGCSSTILFFNLFLERLITIIAYIMKSCHQRQLRRRGALPQESLKDAGQCEVDSLAGWKPSVYYVMLILCTASILISCCASAMYTPIEGWSYFDSLYFCFVAFSTIGFGDLVSSQNAHYESQGLYRFANFVFILMGVCCIYSLFNVISILIKQSLNWILRKMDSGCCPQCQRGLLRS
modifications: N-glycosylation at N59 and N65
notes: C-terminally truncated; The N-terminal GFP-His10 tags were removed by PreScission (3C) protease at LEVLFQ/GP; residues of the cleavage site probably remain at the N-terminus (surmised); Homodimeric K2P channel in GDN detergent; also called THIK1EM; hTHIK1EM; source: HEK293 GnTi- cells, baculovirus (BacMam) infection, purified (GFP-nanobody resin, 3C cleavage, Superdex 200 in GDN); not shown: GFP, …
  stoichiometry N: 2
